Where “and” joins values, the source holds several entries; their conditions need not be identical. Equal entries are not always repeated.
How the values were obtained:
[1] = biological target: YsaN wild type full length (untagged) (Yersinia enterocolitica 8081); test: SEC; analytical Superdex 200 HR 10/30; about 10 µM protein pre-incubated with 1.5 mM ADP and 1.5 mM AlCl3 (ADP.AlFX); 50 mM Tris pH 8.0, 100 mM KCl, 4 mM MgCl2, 5 mM NaF, 1 mM DTT, 5% glycerol; 0.5 ml/min, room temperature; apparent molecular weight from a standard curve
[2] = biological target: YsaN∆83 (Yersinia enterocolitica 8081); test: negative-stain TEM
[3] = biological target: YsaN∆83 (Yersinia enterocolitica 8081); test: SEC; analytical Superdex 200 HR 10/30; about 10 µM protein pre-incubated with 1.5 mM ADP and 1.5 mM AlCl3 (ADP.AlFX); 50 mM Tris pH 8.0, 100 mM KCl, 4 mM MgCl2, 5 mM NaF, 1 mM DTT, 5% glycerol; 0.5 ml/min, room temperature; apparent molecular weight from a standard curve

Substance	stoichiometry N [1]	stoichiometry N [2]	stoichiometry N [3]
YsaN wild type full length (untagged) (enzyme)	6 and 12	–	–
YsaN∆83 (domain or fragment)	–	6	6

From PMC9493007
